The record followed here is US20240124582A1 (published 2024).

The assay addresses T1, soluble LAG-3 fusion protein: extracelluar domain of cynomolgus monkey LAG-3 fused to murine IgG2a (cynomolgus monkey; murine).
T1 construct: extracellular domain; also called cynomolgus LAG-3-murine IgG2a fusion protein
Nature of the assay: SPR (Biacore); cynomolgus LAG-3-murine IgG2a captured on Fab2 goat-anti mouse Fc, antibody in solution. The protocol: In additional studies, the binding kinetics of the humanized antibodies hLAG-3 mAb 1 (1.4) and hLAG-3 mAb 6 (1.1), and a reference antibody LAG-3 mAb A to both human and cynomolgus monkey LAG-3 was investigated using Biacore analysis. In these studies, a soluble LAG-3 fusion protein (the extracelluar domain of human or cynomolgus monkey LAG-3 fused to murine IgG2a) was captured on a Fab2 goat-anti mouse Fc surface and incubated with the anti-LAG-3 antibody and the kinetics of binding was determined via Biacore analysis. The binding curves for LAG-3 mAb A, hLAG-3 mAb 1 (1.4) and hLAG-3 mAb 6 (1.1) binding to cynomolgus monkey LAG-3 are shown in FIGS. 7A-7C respectively, and the calculated ka, kd and KD are presented in Table 8. In a separate study, the binding of a bispecific Fc Region-containing diabody comprising hLAG-3 mAb 6 (1.1) to both human and cynomolgus monkey LAG-3 was investigated using Biacore analysis. In this study, the hLAG-3 mAb 6 (1.1) containing diabody was captured on a Fab2 goat-anti human Fc surface and incubated with soluble LAG-3 fusion protein (the extracelluar domain of human or cynomolgus monkey LAG-3 fused to a His tag) and the kinetics of binding was determined via Biacore analysis.
(SPR reads the build-up and loss of mass on a sensor chip optically.)

B1: 25F7 (BMS-986016, Medarex/BMS), designated LAG-3 mAb A (antibody, V domains shown)
VH: QVQLQQWGAGLLKPSETLSLTCAVYGGSFSDYYWNWIRQPPGKGLEWIGEINHNGNTNSNPSLKSRVTLSLDTSKNQFSLKLRSVTAADTAVYYCAFGYSDYEYNWFDPWGQGTLVTVSS
VL: EIVLTQSPATLSLSPGERATLSCRASQSISSYLAWYQQKPGQAPRLLIYDASNRATGIPARFSGSGSGTDFTLTISSLEPEDFAVYYCQQRSNWPLTFGQGTNLEIK
notes: also called LAG-2 mAb A
A word on the Kd: it is the constant that tells how readily two partners part at equilibrium. B1 gave a Kd of 458 nM.

B2: hLAG-3 mAb 1 (1.4), constant region not stated (antibody, V domains shown)
VH: QVQLVQSGAEVKKPGASVKVSCKASGYTFTNYGMNWVRQAPGQGLEWMGWINTYTGESTYADDFEGRFVFSMDTSASTAYLQISSLKAEDTAVYYCARESLYDYYSMDYWGQGTTVTVSS
VL: DIVMTQTPLSLSVTPGQPASISCKSSQSLLHSDAKTYLNWLLQKPGQPPERLIYLVSELDSGVPDRFSGSGSGTDFTLKISRVEAEDVGVYYCWQGTHFPYTFGGGTKVEIK
notes: also called hLAG-3 1 (1.4)
B2: the Kd is less than 0.53 nM.

B3: hLAG-3 mAb 6 (1.1) (antibody, V domains shown)
VH: QVQLVQSGAEVKKPGASVKVSCKASGYTFTDYNMDWVRQAPGQGLEWMGDINPDNGVTIYNQKFEGRVTMTTDTSTSTAYMELRSLRSDDTAVYYCAREADYFYFDYWGQGTTLTVSS
VL: DIQMTQSPSSLSASVGDRVTITCRASQDVSSVVAWYQQKPGKAPKLLIYSASYRYTGVPSRFSGSGSGTDFTLTISSLQPEDFATYYCQQHYSTPWTFGGGTKLEIK
notes: also called hLAG-3 6 (1.1); humanized LAG-3 mAb 6
B3 displayed a Kd of 3.7 nM.
